Each block holds one compound with its values, some of them ahead of it. Square brackets hold non-standard residues; d marks the D form. * marks the point of attachment. Cbz = O=C(OCc1ccccc1)*
Experiments:
KMS-12 cells = assay: [3H]thymidine incorporation assay, DTP3 and bortezomib as single agents or in combination, KMS-12; conditions: Homo sapiens, 48 h, read-out: IC50 value as single agent
Description: (§2) Treatments with DTP3 were for 6 days; bortezomib was added to the cell cultures 48 hr prior to the measurement of cell viability. For the combination treatment, DTP3 was used at the concentrations of 3 nM in U266 cells and of 10 nM in KMS-12 cells, whereas bortezomib was used at increasing concentrations, as shown.
Viability data from the experiment shown in FIG. 12 were converted into values representing the fraction of cells affected (FA) equaling 0.5 in the drug-treated cultures compared with untreated cultures, and the interaction of DTP3 with bortezomib was analysed according to the Chou-Talalay method (Chou, 2006). Also shown are the drug concentrations giving the FA value of 0.5 and the description of the CI. Based on the Chou-Talalay equation (Chou, 2006), synergy is present when the CI is less than 1.0 (where values between 0.3 and 0.7 denote synergism, and values between 0.1 and 0.3 denote strong synergism); the combination is additive when CI equals 1.0, and antagonistic when it is more than 1.0 (Chou, 2006).
(§3) [^3H]Thymidine incorporation assays were performed using standard protocols (Griffiths and Sundaram, 2011). […] At 24, 72 or 144 hr, cells were incubated for an additional 16 hr with 0.037 MBq/well of [^3H]thymidine (Amersham), and then harvested onto glass fibre filter mats using a 96-well plate automated Tomtec cell harvester (Receptor Technologies) and analysed by liquid scintillation spectroscopy with a LKB Wallac Trilux Microbeta 3 b-counter (PerkinElmer). Values were expressed as the percentage of the counts per minute (cpm) measured in the treated cultures relative to the cpm measured in the respective untreated cultures. […]
The activities of DTP3 and bortezomib in the U266 and KMS-12 myeloma cell lines, both as single agents and in combination, were determined using [^3H]thymidine incorporation assays, performed as described above in “Cell Proliferation, Cell Death, and Apoptosis Assays”. The IC50 values of bortezomib as single agent were determined at 48 hr using 9 concentrations of drug, ranging from 0.1 to 1,000 nM.

U266 cells = assay: [3H]thymidine incorporation assay, DTP3 and bortezomib as single agents or in combination, U266; conditions: Homo sapiens, U-266, 48 h, read-out: IC50 value as single agent
Description: as §2
Viability data from the experiment shown in FIG. 12 were converted into values representing the fraction of cells affected (FA) equaling 0.5 in the drug-treated cultures compared with untreated cultures, and the interaction of DTP3 with bortezomib was analysed according to the Chou-Talalay method (Chou, 2006). Also shown are the drug concentrations giving the FA value of 0.5 and the description of the CI. […]
as §3

[1] = system: diffuse large B-cell lymphoma (DLBCL) cell lines; assay: PI nuclear staining assay, apoptotic cells in DLBCL cell lines; type: cell-based, human; conditions: 6 days; sensitive and insensitive DLBCL cell lines; baseline level
Description: Current treatment of diffuse large B-cell lymphoma typically involves treatment with combination therapy, such as cyclophosphamide, doxorubicin, vincristine and prednisone (CHOP), or rituximab, cyclophosphamide, doxorubicin, vincristine and prednisone (R-CHOP). With those current treatments, many patients relapse and/or develop drug resistance at some point. The potential of the Gadd45β/MKK7 inhibitor DTP3 to operate in these settings was evaluated, by determining levels of apoptosis in diffuse large B-cell lymphoma cell lines known to be resistant to current therapies (HT, SU-DHL-8, U-2932, RC-K8 and RIVA, see for example Kaneko et al, Clinical Cancer Research, 2014, 20, p 1814-1820; Naylor et al, Cancer Research, 2011, Volume 71, p 2643-2653; Lyu et al, Cancer Research, 2013, Volume 73, Issue 8, Supplement 1), following treatment of those cells with DTP3. These cells have CARD11, A20 and/or MYD88 mutations and are also known to be resistant to agents such as Bruton's tyrosine kinase inhibitors, spleen tyrosine kinase inhibitors, PI3K inhibitors and/or protein kinase C inhibitors.
The percentages of apoptotic cells are depicted.
A comparison was made between the ability of DTP3 to kill various DLBCL cell lines by apoptosis in vitro. Cell lines HT, SU-DHL-8, U-2932 and RC-K8 which are known to be sensitive to DTP3; and insensitive cell lines RI-1, NU-DUL-1, TMD8, and HBL1 were used. Cell death was assessed using a standard propidium iodide (PI) nuclear staining assay followed by flow cytometry whereby the proportion of cells with a sub G1-DNA content was measured after cells had been exposed to DTP3 for 6 days at 10 μM. As controls, further populations of cells were left untreated (UT) or were treated with a scrambled D-tripeptide (SCR) for 6 days.
Apoptosis analyses were performed using propidium iodide (PI) nuclear labelling, as described previously (Riccardi and Nicoletti, 2006). Briefly, cells were seeded at a density of 2×10^5 cells/well into wells of either 24- or 48-well plates and cultured in the presence or absence of treatment, as shown. Cells were then fixed in 70% ice-cold ethanol for 16 hr, washed in PBS, and treated with ribonuclease A (50 μg/mL) for 30 min at room temperature. Samples were finally stained with PI (50 μg/mL) in 0.1% sodium citrate buffer for 2 to 4 hr at 4° C. in the dark, and data were acquired using a FACSCalibur automated system (Becton Dickinson) and analysed with FlowJo.

Gadd45β/MKK7 complex = biological target: T1, Gadd45β/MKK7 complex (Homo sapiens, UniProt O14733); assay: co-immunoprecipitation assay; type: binding; conditions: anti-FLAG immunoprecipitates, HEK-293T lysates
T1 construct: expressed in transfected cells; host or cells: human HEK-293T
T1 sequence (O14733 1-419): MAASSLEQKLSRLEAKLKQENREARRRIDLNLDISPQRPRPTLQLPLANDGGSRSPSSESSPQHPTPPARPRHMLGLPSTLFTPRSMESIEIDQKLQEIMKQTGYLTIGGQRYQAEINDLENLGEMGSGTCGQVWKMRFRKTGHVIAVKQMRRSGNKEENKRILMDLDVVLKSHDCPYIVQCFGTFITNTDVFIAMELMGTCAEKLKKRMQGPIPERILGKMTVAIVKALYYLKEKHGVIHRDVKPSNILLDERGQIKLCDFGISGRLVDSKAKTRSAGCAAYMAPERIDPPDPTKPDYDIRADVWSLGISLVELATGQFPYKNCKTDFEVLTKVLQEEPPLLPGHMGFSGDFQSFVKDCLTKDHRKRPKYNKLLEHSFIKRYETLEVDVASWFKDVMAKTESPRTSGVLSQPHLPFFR
Description: (§1) Values express the percentage of live cells present in the treated cultures relative to the live cells present in the respective untreated cultures and denote means±SD ([WM]; n=3). UT, untreated. […] Values express the percentage of inhibition of Gadd45β binding to MKK7 relative to the binding measured in the absence of peptide. […] Co-immunoprecipitations (IP) were performed using an anti-FLAG antibody (a-FLAG); western blots (WB) were developed using an anti-HA or an anti-MKK7 antibody, as shown.
Co-immunoprecipitation assays were performed as described previously (Papa et al., 2004). Briefly, human HEK-293T cells were seeded at a density of 1.8-2.2×10^6 cells/dish in […] tissue-culture dishes and then transfected with pcDNA-FLAG-hMKK7 and pcDNA-HA-hGADD45β by using the calcium phosphate precipitation method (Papa et al., 2004). 48 hr after transfection, cells were washed with PBS and then lysed in lysis buffer supplemented with protease inhibitors (1 mM phenylmethylsulfonylfluoride, 10 μM chymostatin, 2 μg/mL aprotinin, 2 μg/mL leupeptin; Roche) for 30 min in ice. Cell lysates were cleared by centrifugation at 45,000×g for 40 min and then used for co-immunoprecipitations with anti-FLAG M2 Affinity Gel (Sigma-Aldrich), binding to FLAG-tagged MKK7. Western blots were developed using an anti-HA (binding to HA-hGADD45β) or an anti-MKK7 antibody. […]

[2] = biological target: GST-MKK7 (full-length human MKK7 fused to an N-terminal GST tag) (human) (UniProt O14733); assay: ELISA Gadd45β/MKK7 competition; without serum pre-incubation
[3] = biological target: GST-MKK7 (full-length human MKK7 fused to an N-terminal GST tag) (human) (UniProt O14733); assay: ELISA Gadd45β/MKK7 competition; after 48-hr pre-incubation with human serum at 37 C
[4] = biological target: GST-MKK7 (full-length human MKK7 fused to an N-terminal GST tag) (human) (UniProt O14733); assay: ELISA Gadd45β/MKK7 competition (summary sentence on FIGS. 4 to 8)
[5] = system: multiple myeloma cell lines; assay: [3H]thymidine incorporation assay, survival of multiple myeloma cell lines; type: cell-based, human; conditions: for cytotoxic activity in multiple myeloma cell lines: 6-day treatment, all lines tested apart from RPMI-8226 and KMM-1; for IC50 values in the sensitive multiple myeloma cell lines: 144 hr, sensitive (Gadd45β-dependent) cell lines
Description: as §1
[^3H]Thymidine incorporation and trypan blue exclusion assays were performed using standard methods (Mauro et al., 2011). […] Apoptosis analyses were performed using PI staining as described in Mauro et al., 2011. Additional details are provided in the Supplemental Experimental Procedures.

[6] = mouse, in vivo
Description: In vitro pharmacokinetic assays were performed according to established, in-house protocols and included: plasma stability (human), thermodynamic solubility (PBS pH 7.4, at 37° C. for 14 days), microsomal stability (human), plasma protein binding (PPB; mouse and human), and distribution coefficient (Log D). In vivo pharmacokinetic analyses were also performed at Cyprotex according to established, in-house protocols. Briefly, the peptides were dissolved in PBS and administered by single intravenous injection to CD1 male mice at the dose of 10 mg/kg (25-30 g of total body weight; n=3 mice per time point per compound). Blood samples were collected in heparinized tubes at up to 7 time points after this injection (i.e. 0.08, 0.25, 0.5, 1, 2, 4 and 8 hr), and the plasma concentrations of the test peptide were determined at each time point by LC-MS/MS, using a five-point standard curve covering a peptide concentration range from 3 to 3,000 ng/mL. Standard curves were prepared using blank plasma matrices and treated in the same manner as the test samples. […] Values were calculated from the data of the peptide plasma concentration versus time curves using a non-compartmental model analysis, as described elsewhere (Groulx, 2006; Landaw and Di Stefano 3rd, 1982). The doses of z-DTP2 and DTP3 predicted to achieve the therapeutic plasma concentration of 1 μM at the steady state were calculated from the measured pharmacokinetic values using the following equation: k0=k1×Vd×Cp (where Vd is expressed in L/kg; Cp is the plasma concentration at the steady state expressed in mg/L; k0 is the zero order input expressed in mg/kg/hr; k1 is the first order elimination constant [0.693/t1/2]).

Compound: DTP3 (Acetyl-Tyr-Arg-Phe-NH2, all residues in the D configuration)
IC50 [2]: 0.16 nM
IC50 [3]: 0.13 nM

Compound: tetrapeptide Tyr-Asp-His-Phe, D-configuration, NH2 group at the C terminal, benzyloxycarbonyl group at the N terminal (Cbz-[dY][dD][dH][dF]-NH2) [z-DTP1]
cytotoxic activity in multiple myeloma cell lines [5]: potent and dose-dependent toxicity
IC50 values in the sensitive multiple myeloma cell lines [5]: low nM to low μM

Compound: tetrapeptide Tyr-Glu-Arg-Phe, D configuration, NH2 group at the C terminal, benzyloxycarbonyl group at the N terminal (Cbz-[dY][dE][dR][dF]-NH2) [z-DTP2]
predicted dose required to achieve the therapeutic plasma concentration of 1 μM at the steady state (k0) [6]: 3.61 mg/kg/h
cytotoxic activity in multiple myeloma cell lines [5]: potent and dose-dependent toxicity
IC50 values in the sensitive multiple myeloma cell lines [5]: low nM to low μM

The next lines start with results.

IC50 (KMS-12 cells): 6 nM
IC50 (U266 cells): 6 nM
Compound: CC(C)C[C@H](NC(=O)[C@H](Cc1ccccc1)NC(=O)c1cnccn1)B(O)O [bortezomib, reference compound]

disruption of the Gadd45β/MKK7 complex (Gadd45β/MKK7 complex): not
Compound: Ac-Arg-Phe-Tyr-NH2 (Ac-[dR]-[dF]-[dY]-NH2) [SCRB, scrambled control D-tripeptide, reference compound]
percentage of apoptotic cells [1]: no more than 27.2%

IC50 [4]: < 1 nM
Compound: DTP3 (Acetyl-Tyr-Arg-Phe-NH2, all residues in the D configuration) (peptide)

Source: patent US20170240592A1, “GADD45BETA/MKK7 INHIBITOR FOR THE TREATMENT OF A RESISTANT HAEMATOLOGICAL MALIGNANCY” (IMPERIAL INNOVATIONS LIMITED, priority 2014, published 2017)
